Here are results for eleven sequences from a protein production outcome set (Wang et al. 2014).

The nature of the data set: label from the status in PepcDB records.
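Further: failed if final PepcDB status was selected cloned or expressed and not failed if soluble or beyond.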

As for “MADNTNVTRRSFLTATGAAAGSVALVGVSAGESDDPWNSDRSEYIVGVSNVEDDPQQHVEQYLQGQEQVGSVQERLNTAVVGLPADAPESVRKQFVDRLESRDTIKYVEQNVELQAQLVPNDPRFGDQYADQQVNAPEAWDTTTGDAGVTIGVVDQGVKYDHPDLDGNIDRSVSNGGRDFVDDDGDPYPDSLNEEIHGTHVAGIAAAEVNNGNGVTGIGNSSVIAGRALSERGSGSTADIADAITWAANEGADVINLSLGGGGYTNTMQNAVTYAANQGALVVAAAGNDGSGSVSYPAAYGGVLAVSALDPDESLASYSNYGPKIDLAAPGTNVLSTWTADDYESISGTSMATPVVAGVAGLTLAQWELSNAELRNHLKATAVDIGLSDRQQGAGRVDAANAVNTDPGSGGGGGGGGGGDSTSSSVSGSLRGRGDSNCWSFSYEYSNPSQVVIELDGPGNADFDLYANTSTNACPTTSSYEFRSWTTGSQESITIDNPDTSVDLNVLAYAYSGRGDLTVTVTEYK”, the protein production result is on record as “failed”.

In the case of “MADPRTDNRNRKIPDAQVDAIKVPPHSLEAEQSVIGGLLLDNERWDTVSEHVMTQDFYSRPHRLIFDGVKSILEAGKPLDLITLSEYLEQREQLEDVGGFAYLADLAKNTPSAANINAYAEIVAERALVRNLIGVANEIADAGYDPQGRNAEDLLDLAESKVFAIAEARTSENEGPKNVDSILERTLERIELLYKTPQDGVTGVNTGFTDLNKKTAGLQGSDLIIVAARPSMGKTTFAMNLCENAAMEQDKPVLIFSLEMPAEQIMMRMLASLSRVDQTKIRTGQLDDEDWARISSTMGILMEKKNMYIDDSSGLTPTEVRSRARRIAREHGGLSLIMVDYLQLMRVPALTDNRTLEIAEISRSLKALAKELNVPVVALSQLNRSLEQRADKRPVNSDLRESGSIEQDADLIMFIYRDEVYHPDSPLKGTAEIIIGKQRNGPIGSVRLTFQGHYSRFDNYAGPAFDDE”, the protein production entry is recorded as “not failed”.

Regarding “MADPTSSERLLVTAALPYANGPIHIGHLAGAYLPADLFVRYQRLKGEDVAFICGSDEMGVAILMRAIREDRTPEDIIDTYHPQIRDNFERFGMSFDYYGRTSSETHTETTQDFFRVLDENGGFDLKTDEQLYDPEAEMFLADRFVIGTCPVCGFEEAYGDQCEQCGSSLSPTELENPQSTLTDATPEFKETTHWYLPLGELQPQLEEWIGSHPEWKNNVVGQIQSWFDEGLKGRAITRDVLWGVPVPDDVAERHGLEAEGKVIYVWFDAPIGYISATKEWAAEQGEPDAWTDYWQDEDTRLVHFIGKDNIVFHCLMFPSMLMEHGDYVLPDNVPANEFLNLEGEKLSTSRGWAVWLHEYLDDFADERHAPDLLRYALATTLPETKDADFSWEGFQQRVNGELANVFGNFVHRTLTFAQRYFDGTVPPLEDPSEADRVMLDRMAEVPDTVGAAYEEHRTRDAVFETMALARRGNKYFNDTEPWHTHESDPQACANTIHVSLQVCAALSILFEPVLPSAAATLRERIGLENVRTSTPDDDPAGAVGWEDAGAPLLPAGHPIPSGPDPEPLFQKIDDDTIEAQIEKLRDRAAERDTDPSSTTDMDYEALSDNISFDDFTQLDLRAGTVTTAEPVPDADKLLRLEVDLGFEERQILAGVAEQMAPDDVVGLEVVVVANMAPKEMFGFESQGMVLMAEEPDGTFVPVTTEAEDGSVVR”, the protein production result is “failed”.

In the case of “MADRPIEIVDRQNVLTVHLPGTYTVMYDARYCYVSYIPVSETVAEFTLTGFKYPLTNCHISRGSTLCISNELIQSSGTFSFSEGILMMIRSSDSLEHHHHHH”, the protein production entry was “failed”.

As to “MADRQLLHTAHIPVRWGDMDSYGHVNNTLYFQYLEEARVAWFETLGIDLEGAAEGPVVLQSLHTYLKPVVHPATVVVELYAGRLGTSSLVLEHRLHTLEDPQGTYGEGHCKLVWVRHAENRSTPVPDSIRAAIA”, the protein production entry was “not failed”.

“MADSDSNEVLIEEIDSNDVPENELEQFQETEPLRVVDIIDCDTDGERRCIADDEEEGALIKRYVQGVQCLEFPDFCTKLEASDEDEEGNDEEPSEAAGSIEKPNTSAQAKTSQEQSTGSGRSGGGGFRKSQLSTALQGLMGEANLSFVYGRYETAERICMEIIRQNPLASEPFYTLAEIYENRDEVKFLNFSTLAAHLNPQDRDMWIRVSDLLVQQGNLARARLIYTKAIKMLPKVYQLRLRKAQLLQKMGETNASMFTYLKMLPLMPPDEWKMCLNTAKNVARYFHVLEKHSLALEAMEGAYSVCGARFTLEDINIYLELLILNKQYAKVLRCLRERTNFELENDQEESLELIYFCEIPDDYVPELRAKLCVSLIHMRAHHLLGYLIQNVQEHITLTADRVELYMDITEALMQEHKYAEAIALMSPITDGDTVECPAFVWLRQAECLRQLNRTNEAIQSYEKVVQLAPFCYDARFTLSALLKQQGRHEEAVQALEQPGEAEGQPLIARLLYERCVMLQQIGRIEEFLDVGYALLSRHSIKLYNREEMMAAANGGSAYNSESLKTIIQMRSKAVDNSAEQDLQDPAKNAASETSDLTVKDEFELFRELVRTAFKHGMHSAAEKICFAMVTTKRFTYYHHEIERIMVLTCYYNDDCAIAFSYLRELIAKQPSQTTLWNMLSLMIQKGDEVRYYRYMRRLMQRHPVDTKPMRIFQGHYHLNCASFKYALNIYMPILRENPDPLVALCIAVAFNQLSLQKKVLRKSASVAQAVAFGQRYKELRSAGHELADCAAQQEIFYNIGRIYHQANILHLAVDYYEKALAVPVHPLIAEHESTLGLQHEVAFNLHLIYRANGNKWKARQYLMRYCVV”: the protein production result was “failed”.

Consider “MADSIKSSNSFQKLDNIDAKETSTVDRKWVALTAYQPVDVVTKTVEVPIIKTVEKYVPKTIIQEKIIHVPKNVTHIVEKIVEVPEVKYIEKIVEVPHIHYKNKYVPKIEIVEKVVERQKIIEKWHDKIVEVPQIKEVVRFKQIEDSEEIIKYVPRNSKNIDWEDEYKKYTESKGLQRYSLDQNNIYQQANSFNQFNENAYNQNAFNRSYELLNKQSSVKSQNNASGENFSQMNFYNQYSGANFEQERSIQASNFEPSGSMQLKRLSSEEIKPAGCCSAACT”, for which the protein production result is recorded as “failed”.

“MADSKSFTFELNESVLTAQVGRLDEMAMVVEQRFSELKMTIEDVGNADPGSKISESLGGLQSGLGTISSAFGQLGSSSEAITSGFGTAVGSVGGITDAFKNLGSSVQNGTLFSSLATGIGGMSTMLGGVSGGVQGITNLASGFMELKNHLGGLMSSIGGVGGIMGKLTSPMGLVIIGIVALVAAFAYLMTTNESFRNTVMSVVTQVAQLFGQLVASLMPIIMQIVTAVMQIGAALMPMVMQFISFFAQLLAQLMPFINMLISMLMPVIMQIVQVVMSLVSALLPSIMTVIQGIMSVIQFLIPIIMQIATVVVQIVVTIISYISKIMPIVMTIIGVIVSIITTIISYVVIIATTIASVIGKIISFIASVITAVIGIVQPIIAFITNIFTTIVTIIGAAFQMVFTVASKIWNSIMSTISGIIDGIKAVITGISTTVSSVFNGVKRIITGVFDGIKSAWGGLTDFVGNIFDGVSSAIQTVVDNVKGFVNVVIRGINGAIGLINKIPGVEIGKIPQLISGTTNFQGGFARMNEGGRGEMVVLPSGSQVIPHDATMKYARESARGNKSMLYTSQGADLARVENLLERLLQKNPVIKMDDKVVAEVVSRNQANSFDQYNYTMGGAAYS”: the protein production result is on record as “not failed”.

Regarding “MADSLAGIDQVTSLHKNNELQLLCFRLGKNKDLYAVNVFKIREVVKYHGNLTIISHENNSLVEGLIIIRELTIPLIDMKKWFYYDSQNKNKDLRPYRIEKEKGEDDIVMICEFSRWTIGVRIYEADRILSKKWTEMEQSAGLGGSAGNNKLVSRTRYFDGRLVQVVDIEKMLIDVFPWIEDEKHNDLETLSKIHSNQCVLLADDSPSVLKTMQMILDKLGVKHIDFINGKTLLEHLFNPTTDVSNIGLIITDLEMPEASGFEVIKQVKNNPLTSKIPIVVNSSMSGSSNEDMARSLKADDFISKSNPKDIQRVVKQFLELA”, the protein production result is given as “failed”.

Regarding “MADSRQAQGPGKSVLGIGQRIVTIIVEMVETRLRLAVVELEEEKANLFQLLLMVGLTMLFAAFGLMSLMVLVIWAIDPQYRLNAMIATTVVLLVLALIGGIWTLRKARQSTLLRHTRHELANDRQILEDDQS”, the protein production result was “failed”.

As to “MADSSRADFWEQRYREGVTPWEGGQLPPRARAFFAAQRPLRVLMPGCGSAADLPPLLAMGHDVLAVDFSEAAIELAARQWPEAAGRLLLADFFQLQMPAFDCLFERAFLCALPVGMRSQYAERVAALIAPGGALAGVFFVADTERGPPFGMQAEALRELLSPWFELEEDLALDESVAVFRNRERWMVWRRRGFDLGQVSEHESTGNCGAHRKE”, the protein production entry is “failed”.
